Assay results as given in PMC5983622, “New Insight into the Octamer of TYMS Stabilized by Intermolecular Cys43-Disulfide” (International Journal of Molecular Sciences, 2018).
Substitutions are numbered along the chain they refer to.

B1: TYMS (Cys210Gly) (enzyme, human, UniProt P04818-1 1-313, looked up)
chain: MPVAGSELPRRPLPPAAQERDAEPRPPHGELQYLGQIQHILRCGVRKDDRTGTGTLSVFGMQARYSLRDEFPLLTTKRVFWKGVLEELLWFIKGSTNAKELSSKGVKIWDANGSRDFLDSLGFSTREEGDLGPVYGFQWRHFGAEYRDMESDYSGQGVDQLQRVIDTIKTNPDDRRIIMCAWNPRDLPLMALPPCHALCQFYVVNSELSGQLYQRSGDMGLGVPFNIASYALLTYMIAHITGLKPGDFIHTLGDAHIYLNHIEPLKIQLQREPRPFPKLRILRKVEKIDDFKAEDFQIEGYNPHPTIKMEMAV
notes: thymidylate synthase (TYMS), human, NM_001071.2, with Cys210Gly made by fusion PCR, in pET-28a(+); Same construct as m1 with the point mutation; source: expressed from pET-28a, purified (Ni-NTA twice); not shown: His6, N-terminal, kept
B2: TYMS (Cys180Gly) (enzyme, human, UniProt P04818-1 1-313, looked up)
chain: B1 chain with C180G, G210C
notes: thymidylate synthase (TYMS), human, NM_001071.2, with Cys180Gly made by fusion PCR, in pET-28a(+); Same construct as m1 with the point mutation; source: expressed from pET-28a, purified (Ni-NTA twice); not shown: His6, N-terminal, kept

Target: the molecule itself
Assay: SDS-PAGE without reductant (Coomassie brilliant blue, Western blot); purified protein, serially diluted, incubated with loading buffer without beta-mercaptoethanol at 37 °C or 100 °C for 10 min; also with beta-mercaptoethanol at 100 °C (~280 kDa band disappeared, ~70 kDa band weakened); also after incubation with 2 mM dUMP and 2 mM mTHF (bands unchanged); anti-His-tag blot

Row | Protein | binding result
1 | B1 | binds
2 | B2 | binds
